Test: soluble on expression in E. coli; label from the status in PepcDB or PDB records

Soluble on expression in E. coli, not soluble:
FGDFNYNTTFTATTNKNKIIQLARDVLNPVTNTLIDLTDIQVGRFRLREGGEIGTVYANEWLKRDGDNYIDYQPGQALTTETTSPYKLGSVNPKWNLGWQHGFSYKGFNLNLLFTARIGGIAISKTQAMLDRYGVSEASADARDAGGVSLGYFKVDPKTYYDAVSNLDAYYTYSATNVRLQEARLTYTFPNKWFKGTVNNLSLSVYGTNLWMIYNKAPYDPELTASTGTFGQGYDYFMLPSQSTYGLSLKFGF
MGSDKIHHHHHHMIRSLWIAKTGLDAQQTQMDVISNNLANVSTNGFKRGRAVFEDLMYQNIRQPGALSSDQTTLPSGLQLGTGVRPVATERIHTQGNPQQTGNSKDVAIIGQGFFQVAMPDGTTAYTRDGSFQVDQNGQLVTSSGFVIQPAITIPANTTSMTVARDGTVSVTQPGSSNNVQVGQLQLATFMNPAGLESMGENLYVQTDASGAPNTTVPGLNGAGVLQQNYVEASNVNVVEELVSMIQTQRAYEINSKAVQTSDQMLQRLTQMG
MAHHHHHHMIEDNIDENCQIYLNPKNWLKEFENTKINENDINEVLMNYFCVHRMYDVAKEFQKESNVKPDMPINTVKIRYLIQNEIMNNKIEEAIEHINNLDKGILKKHKDLVFFLKKQQLLKLILNNNINEAIIYSQQELASYVKEKPSLINEIDDVMMLMAYQDFNNEEAKNLIQKIEKKKNTLKRIDDIILNYYNVDSESTLEYMVKNVFFTQNVLSSKYPCSVPKIKNLKSGYIEYYEKYKKKKRKSSSKKYRSKDKDKVDKHDKKNVDNIVKDFDVTNDEEYRSV
MTNNITPIHEYKKYWAECFGTAPFLPTSRKEMDALGWDSCDIIIVTGDAYVDHPSFGMAIIGRLLEAQGFRVGIIAQPEWQNKNAFMQLGKPNLFFGITAGNMDSMINRYTADKKLRHDDAYTPNNEGGKRPDRATLVYSQRCREAYKEVPIVLGGIEASLRRVAHYDYWSDKVRRSVLFDAKADILLFGNAERALVEVAHRIANGEDISTMTNIRGTAVNLPAAPEGYTVIDSSRIEKPRKEAFVPKNPYEVETQCETKKDEPVAQPITIRPSRHDAATTAVRLPSFEKLRNDRILYAHASRVLHLETNPYSGRALLQSHGDRELWVNQAPIPLTTEEMDFVFGLPYARVPHPMYGKAKIPAYDMIKTS
MGSDKIHHHHHHMSDKTDSSQGKSEPESSENNNDKTSVDNSVKSPLTIAISKNTKILALFAIACTLAVSLVSELTKDRIKVQEQQQLLRTLHSIIEPSRYDNDIANDCIMMSAPELGSNKVKTAYIARKAGQVVAVAITSTAPQGYNGNIDFIMAINNDGSVSGVRVLKHQETPGLGDKIEIRKSDWIKSFTGKRILSEDDSRWAVTKDNGMFDQFTGATITPRAVVKGVKSTLNYFNQHKGSLIPRPNACGEALSTTKSISPISEAANEQ
MAGDPMKKTILLTMTTLTLFSMSPNSAQAYTNDSKTLEEAKKAHPNAQFKVNKDTGAYTYTYDKNNTPNNNHQNQSRTNDNHQHANQRDLNNNQYHSSLSGQYTHINDAIDSHTPPQTSPSNPLTPAIPNVEDNDDELNNAFSKDNKGLITGIDLDELYDELQIAEFNDKAKTADGKPLALGNGKIIDQPLITSKNNLYTAGQCTWYVFDKRAKDGHTISTFWGDAKNWAGQASSNGFKVDRHPTRGSILQTVNGPFGHVAYVEKVNIDGSILISEMNWIGEYIVSSRTISASEVSSYNYIHLEHHHHHH
DNYNVEGASASFAVGYERGVKQLAEGLLLSIYAELDWAAFRSVSDKRSLPFSDDSAQNRFRFLAGAGVHKRLNPNIELYARGAVGASFFPENNGSSSRELKGGFNVSLRVGLSCSLRDNFAVFIDTGTSDIVRGGLALMW
